Patent US20220144956A1 (published 2022)

Tests used:
[1] = molecular target: T1, His-tagged human CD5 antigen (human, UniProt P06127 25-372); assay: Octet
T1 chain: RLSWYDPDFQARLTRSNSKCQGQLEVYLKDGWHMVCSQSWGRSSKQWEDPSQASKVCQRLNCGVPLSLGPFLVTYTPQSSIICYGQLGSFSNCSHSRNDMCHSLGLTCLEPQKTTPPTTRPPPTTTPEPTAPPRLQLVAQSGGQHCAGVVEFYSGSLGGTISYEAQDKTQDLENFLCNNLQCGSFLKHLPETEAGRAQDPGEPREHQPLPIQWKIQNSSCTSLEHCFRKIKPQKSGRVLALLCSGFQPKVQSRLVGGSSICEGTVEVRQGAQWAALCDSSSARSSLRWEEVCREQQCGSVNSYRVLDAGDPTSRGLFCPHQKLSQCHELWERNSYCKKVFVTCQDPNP

[2] = molecular target: human TGFßRII (antigen of the Octet experiments) (human, UniProt P37173 23-166)
Chain of human TGFßRII (antigen of the Octet experiments) (P37173 23-166): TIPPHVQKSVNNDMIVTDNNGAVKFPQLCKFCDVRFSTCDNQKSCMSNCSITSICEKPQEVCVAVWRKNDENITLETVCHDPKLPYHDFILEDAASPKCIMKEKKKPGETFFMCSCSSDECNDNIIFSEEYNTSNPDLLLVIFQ

B1: XENP37388 (bispecific antibody)
heavy: QVTLKESGAELVRPGASVKLSCKASGYSFTSYWMNWVKQRPGQGLEWIGMIHPSDSETRLNQKFKDKATLTVDKSSSTAYMQLSSPTSEDSAVYYCARWGDHDDAMDFWGQGTMVTVSSASTKGPSVFPLAPSSKSTSGGTAALGCLVKDYFPEPVTVSWNSGALTSGVHTFPAVLQSSGLYSLSSVVTVPSSSLGTQTYICNVNHKPSDTKVDKKVEPKSCDKTHTCPPCPAPPVAGPSVFLFPPKPKDTLMISRTPEVTCVVVDVKHEDPEVKFNWYVDGVEVHNAKTKPREEEYNSTYRVVSVLTVLHQDWLNGKEYKCKVSNKALPAPIEKTISKAKGQPREPQVYTLPPSREEMTKNQVSLTCDVSGFYPSDIAVEWESDGQPENNYKTTPPVLDSDGSFFLYSKLTVDKSRWEQGDVFSCSVMHEALHNHYTQKSLSLSPGK
scFv-Fc: QLQVQESGPGLVKPSETLSLTCTVSGGSISNSYFSWGWIRQPPGKGLEWIGSFYYGEKTYYNPSLKSRATISIDTSKSQFSLKLSSVTAADTAVYYCPRGPTVIRGVIDSWGQGTLVTVSSGKPGSGKPGSGKPGSGKPGSEIVLTQSPATLSLSPGERATLSCRASQSVRSYLAWYQQKPGQAPRLLIYDASNRATGIPARFSGSGSGTDFTLTISSLEPEDFAVYYCQQRSNWPPTFGQGTKVEIKEPKSSDKTHTCPPCPAPPVAGPSVFLFPPKPKDTLMISRTPEVTCVVVDVKHEDPEVKFNWYVDGVEVHNAKTKPREEQYNSTYRVVSVLTVLHQDWLNGKEYKCKVSNKALPAPIEKTISKAKGQPREPQVYTLPPSREQMTKNQVKLTCLVKGFYPSDIAVEWESNGQPENNYKTTPPVLDSDGSFFLYSKLTVDKSRWQQGNVFSCSVMHEALHNHYTQKSLSLSPGK
light: DIVLTQSPASLSASVGESVTITCRPSENIYGYFAWYQQRQGKSPQLLVYNAKTLAEGVPSRFSGSGSGTHFSLKINSLQPEDFGTYYCQHHYGTPFTFGPGTKVDIKRTVAAPSVFIFPPSDEQLKSGTASVVCLLNNFYPREAKVQWKVDNALQSGNSQESVTEQDSKDSTYSLSSTLTLSKADYEKHKVYACEVTHQGLSSPVTKSFNRGEC
- Kd [1]: 2.75 nM

B2: XENP35399 (bispecific antibody)
heavy: EVQLVESGGGVVQPGRSLRLSCTFSGFSLSTSGMGVGWIRQAPGKGLEWVAHIWWDDDVYYNPSLKSRLTITKDASTDTVYMELSSLRSEDTAVYYCVRRRATGTGFDYWGQGTLVTVSSASTKGPSVFPLAPSSKSTSGGTAALGCLVKDYFPEPVTVSWNSGALTSGVHTFPAVLQSSGLYSLSSVVTVPSSSLGTQTYICNVNHKPSDTKVDKKVEPKSCDKTHTCPPCPAPPVAGPSVFLFPPKPKDTLMISRTPEVTCVVVDVKHEDPEVKFNWYVDGVEVHNAKTKPREEEYNSTYRVVSVLTVLHQDWLNGKEYKCKVSNKALPAPIEKTISKAKGQPREPQVYTLPPSREEMTKNQVSLTCDVSGFYPSDIAVEWESDGQPENNYKTTPPVLDSDGSFFLYSKLTVDKSRWEQGDVFSCSVMHEALHNHYTQKSLSLSPGK
scFv-Fc: QLQVQESGPGLVKPSETLSLTCTVSGGSISNSYFSWGWIRQPPGKGLEWIGSFYYGEKTYYNPSLKSRATISIDTSKSQFSLKLSSVTAADTAVYYCPRGPTVIRGVIDSWGQGTLVTVSSGKPGSGKPGSGKPGSGKPGSEIVLTQSPATLSLSPGERATLSCRASQSVRSYLAWYQQKPGQAPRLLIYDASNRATGIPARFSGSGSGTDFTLTISSLEPEDFAVYYCQQRSNWPPTFGQGTKVEIKEPKSSDKTHTCPPCPAPPVAGPSVFLFPPKPKDTLMISRTPEVTCVVVDVKHEDPEVKFNWYVDGVEVHNAKTKPREEQYNSTYRVVSVLTVLHQDWLNGKEYKCKVSNKALPAPIEKTISKAKGQPREPQVYTLPPSREQMTKNQVKLTCLVKGFYPSDIAVEWESNGQPENNYKTTPPVLDSDGSFFLYSKLTVDKSRWQQGNVFSCSVMHEALHNHYTQKSLSLSPGK
light: NIVMTQSPSSLSASVGDRVTITCQASQDVGTAVAWYQQKPDQSPKLLIYWTSTRHTGVPDRFTGSGSGTDFTLTISSLQPEDIATYFCHQYNSYNTFGSGTKLEIKRTVAAPSVFIFPPSDEQLKSGTASVVCLLNNFYPREAKVQWKVDNALQSGNSQESVTEQDSKDSTYSLSSTLTLSKADYEKHKVYACEVTHQGLSSPVTKSFNRGEC
- Kd [2]: 0.97 nM
- Kd [1]: 1.69 nM

B3: XENP36132 (bispecific antibody)
heavy: EVQLVESGGGVVQPGRSLRLSCTFSGFSLSTSGMGVGWIRQAPGKGLEWVAHIWWDDDVYYNPSLKSRLTITKDASTDTVYMELSSLRSEDTAVYYCVRRRATGTGFDYWGQGTLVTVSSASTKGPSVFPLAPSSKSTSGGTAALGCLVKDYFPEPVTVSWNSGALTSGVHTFPAVLQSSGLYSLSSVVTVPSSSLGTQTYICNVNHKPSDTKVDKKVEPKSCDKTHTCPPCPAPPVAGPSVFLFPPKPKDTLMISRTPEVTCVVVDVKHEDPEVKFNWYVDGVEVHNAKTKPREEEYNSTYRVVSVLTVLHQDWLNGKEYKCKVSNKALPAPIEKTISKAKGQPREPQVYTLPPSREEMTKNQVSLTCDVSGFYPSDIAVEWESDGQPENNYKTTPPVLDSDGSFFLYSKLTVDKSRWEQGDVFSCSVMHEALHNHYTQKSLSLSPGK
scFv-Fc: QLQVQESGPGLVKPSETLSLTCTVSGGSISNSYFYWGWIRQPPGKGLEWIGSFYYGEKTYYNPSLKSRATISIDTSKSQFSLKLSSVTAADTAVYYCPRGPTMIRGVIDSWGQGTLVTVSSGKPGSGKPGSGKPGSGKPGSEIVLTQSPATLSLSPGERATLSCRASQSVRSYLAWYQQKPGQAPRLLIYDASNRATGIPARFSGSGSGTDFTLTISSLEPEDFAVYYCQQRSNWPPTFGQGTKVEIKEPKSSDKTHTCPPCPAPPVAGPSVFLFPPKPKDTLMISRTPEVTCVVVDVKHEDPEVKFNWYVDGVEVHNAKTKPREEQYNSTYRVVSVLTVLHQDWLNGKEYKCKVSNKALPAPIEKTISKAKGQPREPQVYTLPPSREQMTKNQVKLTCLVKGFYPSDIAVEWESNGQPENNYKTTPPVLDSDGSFFLYSKLTVDKSRWQQGNVFSCSVMHEALHNHYTQKSLSLSPGK
light: NIVMTQSPSSLSASVGDRVTITCQASQDVGTAVAWYQQKPDQSPKLLIYWTSTRHTGVPDRFTGSGSGTDFTLTISSLQPEDIATYFCHQYNSYNTFGSGTKLEIKRTVAAPSVFIFPPSDEQLKSGTASVVCLLNNFYPREAKVQWKVDNALQSGNSQESVTEQDSKDSTYSLSSTLTLSKADYEKHKVYACEVTHQGLSSPVTKSFNRGEC
- Kd [2]: 6.1 nM

B4: XENP37385 (bispecific antibody)
heavy: EVQLKESGAELVRPGGSVKISCKGSGYTFTNFAIHWVKQSHIKTLEWIGLISTSSGDVSYNQKFKDKATMTVDKSSSTAYMELARLTSEDSAIYYCARHYGANNYFDYWGQGTLVTVSSASTKGPSVFPLAPSSKSTSGGTAALGCLVKDYFPEPVTVSWNSGALTSGVHTFPAVLQSSGLYSLSSVVTVPSSSLGTQTYICNVNHKPSDTKVDKKVEPKSCDKTHTCPPCPAPPVAGPSVFLFPPKPKDTLMISRTPEVTCVVVDVKHEDPEVKFNWYVDGVEVHNAKTKPREEEYNSTYRVVSVLTVLHQDWLNGKEYKCKVSNKALPAPIEKTISKAKGQPREPQVYTLPPSREEMTKNQVSLTCDVSGFYPSDIAVEWESDGQPENNYKTTPPVLDSDGSFFLYSKLTVDKSRWEQGDVFSCSVMHEALHNHYTQKSLSLSPGK
scFv-Fc: QLQVQESGPGLVKPSETLSLTCTVSGGSISNSYFSWGWIRQPPGKGLEWIGSFYYGEKTYYNPSLKSRATISIDTSKSQFSLKLSSVTAADTAVYYCPRGPTVIRGVIDSWGQGTLVTVSSGKPGSGKPGSGKPGSGKPGSEIVLTQSPATLSLSPGERATLSCRASQSVRSYLAWYQQKPGQAPRLLIYDASNRATGIPARFSGSGSGTDFTLTISSLEPEDFAVYYCQQRSNWPPTFGQGTKVEIKEPKSSDKTHTCPPCPAPPVAGPSVFLFPPKPKDTLMISRTPEVTCVVVDVKHEDPEVKFNWYVDGVEVHNAKTKPREEQYNSTYRVVSVLTVLHQDWLNGKEYKCKVSNKALPAPIEKTISKAKGQPREPQVYTLPPSREQMTKNQVKLTCLVKGFYPSDIAVEWESNGQPENNYKTTPPVLDSDGSFFLYSKLTVDKSRWQQGNVFSCSVMHEALHNHYTQKSLSLSPGK
light: EIVLTQSPTIMSASPGEQVTMTCRTNSSVSSSYLHWYQQKSGASPKLWIYGTSNLASGVPTRFSGSGSGTSYSLTISSVEAGDAATYFCQQYSGYPLTFGGGTKVEIKRTVAAPSVFIFPPSDEQLKSGTASVVCLLNNFYPREAKVQWKVDNALQSGNSQESVTEQDSKDSTYSLSSTLTLSKADYEKHKVYACEVTHQGLSSPVTKSFNRGEC
- Kd [1]: 6.67 nM
